Experiment [1] addresses T1, iSRCR1 (Homo sapiens, UniProt Q9UGM3).
T1 construct: strongly proves that a single SRCR domain contains the adherence sites for AgI/II and SspB; made in house; host or cells: Drosophila expression system
Put plainly: SPR binding of analytes to immobilized iSRCR1 (CM5 chip, 1:1 Langmuir). Conditions: ligand iSRCR1. As for the experimental part: (§1) Real time binding analyses of the SRCR domains with AgI/II fragments were carried out using the BIAcore 2000 system. […] Self association of iSRCR1 or iSRCR123 (at 2 μM) were also determined in a similar manner as described above. Finally to determine the effect of calcium SPR analysis was carried out by dialyzing the analytes and ligands in binding buffer devoid of CaCl2.
(§2) In addition, the SRCR holding two distinct surfaces compounded the elucidation of individual kinetics, and presently there are no modeling protocols available to determine the individual affinities for such a system, therefore for simplicity we have utilized a single site 1:1 Langmuir model. All experiments were carried out in triplicates and the kinetics of the association (KA) and dissociation (KD) rate constants were deduced using the 1:1 Langmuir Kinetic model on the BIA-Evaluation software. The concentration (C in μM) of analyte (FL^AgI/II or FL^SspB at 2 μM) that adhered to the immobilized ligand (iSRCR1, iSRCR123) within the flow cell was calculated using the formula C=(RU/MW)×(1/V), where RU is resonance unit (1 RU=1 pg of bound protein), MW is molecular weight of analyte and V is volume of flow cell (1.2×10^−10 L).

The target in a further experiment is T2, iSRCR1 (Deglycosylated) (Homo sapiens, UniProt Q9UGM3).
T2 construct: strongly proves that a single SRCR domain contains the adherence sites for AgI/II and SspB; made in house; host or cells: Drosophila expression system
T2 sequence (Q9UGM3 102-202): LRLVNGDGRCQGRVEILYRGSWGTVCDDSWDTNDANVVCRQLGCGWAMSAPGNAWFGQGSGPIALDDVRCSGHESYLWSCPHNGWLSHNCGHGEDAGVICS
Put plainly: SPR binding of analytes to on-chip deglycosylated iSRCR1. Conditions: ligand iSRCR1 (Deglycosylated). How it is done: as §1
(§3) On-chip Deglycosylation of the iSRCR1 and iSRCR123 was carried out after immobilizing them on CM5 sensor chip. Enzymatic deglycosylation was done to remove N- and O-linked carbohydrates from iSRCR1 and iSRCR123. Briefly, after immobilization of iSRCR1 and iSRCR123, deglycosylation was carried out at native conditions by incubating the entire chip surface externally with a cocktail containing a total reaction volume of 40 μl made up of 4 μl of 10×G7reaction buffer, 4 μl of 10% NP40, 4 μl of Neuraminidase (Sigma), 18 μl water and 10 μl of O-glycosidase (New England Biolabs, Inc.,) and similarly following manufacturers protocols for EndoH (New England Biolabs, Inc). Later, the chip was sealed and incubated overnight at 37° C. Subsequently the chip was thoroughly washed with binding buffer (20 mM HEPES, 150 mM NaCl, 2.5 mM CaCl2) to remove the deglycosylating enzymes and other remnants. Binding studies with FL^AgI/II and FL^SspB and subfragments were then carried out as described above and regenerated as described in Table 2.
as §2
(In general: SPR reads the build-up and loss of mass on a sensor chip optically.)

The target in experiment [2] is T3, iSRCR123 (Homo sapiens, UniProt Q9UGM3).
T3 construct: multiple SRCR domains have better adherence capability compared to that of a single SRCR domain; made in house; host or cells: Drosophila expression system
T3 sequence (Q9UGM3 102-463 limits assumed): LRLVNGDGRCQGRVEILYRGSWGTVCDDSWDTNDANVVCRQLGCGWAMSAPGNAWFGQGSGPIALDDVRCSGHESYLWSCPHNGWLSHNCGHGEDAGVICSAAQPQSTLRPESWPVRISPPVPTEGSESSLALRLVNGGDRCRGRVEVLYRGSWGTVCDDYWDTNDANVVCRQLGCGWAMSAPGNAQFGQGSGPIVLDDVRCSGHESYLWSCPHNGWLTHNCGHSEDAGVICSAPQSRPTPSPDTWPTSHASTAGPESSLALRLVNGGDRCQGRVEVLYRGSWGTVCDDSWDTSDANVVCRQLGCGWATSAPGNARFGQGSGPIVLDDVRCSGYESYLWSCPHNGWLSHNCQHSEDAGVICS
Put plainly: SPR binding of analytes to immobilized iSRCR123 (CM5 chip, 1:1 Langmuir). Conditions: for KA / Kd / ka / kd: ligand iSRCR123. As for the experimental part: as §1, §2

For experiment [3], the target named is T4, iSRCR123 (Deglycosylated) (Homo sapiens, UniProt Q9UGM3).
T4 construct: multiple SRCR domains have better adherence capability compared to that of a single SRCR domain; made in house; host or cells: Drosophila expression system
T4 sequence (Q9UGM3 102-463 limits assumed): as above
Description: SPR binding of analytes to on-chip deglycosylated iSRCR123. Conditions: ligand iSRCR123 (Deglycosylated). As for the experimental part:
as §1, §3, §2

The target of the next experiment is T5, SAG (Homo sapiens, UniProt Q9UGM3).
T5 construct: from tissue; host or cells: saliva (purified SAG, gift)
T5 sequence (Q9UGM3 20-2413): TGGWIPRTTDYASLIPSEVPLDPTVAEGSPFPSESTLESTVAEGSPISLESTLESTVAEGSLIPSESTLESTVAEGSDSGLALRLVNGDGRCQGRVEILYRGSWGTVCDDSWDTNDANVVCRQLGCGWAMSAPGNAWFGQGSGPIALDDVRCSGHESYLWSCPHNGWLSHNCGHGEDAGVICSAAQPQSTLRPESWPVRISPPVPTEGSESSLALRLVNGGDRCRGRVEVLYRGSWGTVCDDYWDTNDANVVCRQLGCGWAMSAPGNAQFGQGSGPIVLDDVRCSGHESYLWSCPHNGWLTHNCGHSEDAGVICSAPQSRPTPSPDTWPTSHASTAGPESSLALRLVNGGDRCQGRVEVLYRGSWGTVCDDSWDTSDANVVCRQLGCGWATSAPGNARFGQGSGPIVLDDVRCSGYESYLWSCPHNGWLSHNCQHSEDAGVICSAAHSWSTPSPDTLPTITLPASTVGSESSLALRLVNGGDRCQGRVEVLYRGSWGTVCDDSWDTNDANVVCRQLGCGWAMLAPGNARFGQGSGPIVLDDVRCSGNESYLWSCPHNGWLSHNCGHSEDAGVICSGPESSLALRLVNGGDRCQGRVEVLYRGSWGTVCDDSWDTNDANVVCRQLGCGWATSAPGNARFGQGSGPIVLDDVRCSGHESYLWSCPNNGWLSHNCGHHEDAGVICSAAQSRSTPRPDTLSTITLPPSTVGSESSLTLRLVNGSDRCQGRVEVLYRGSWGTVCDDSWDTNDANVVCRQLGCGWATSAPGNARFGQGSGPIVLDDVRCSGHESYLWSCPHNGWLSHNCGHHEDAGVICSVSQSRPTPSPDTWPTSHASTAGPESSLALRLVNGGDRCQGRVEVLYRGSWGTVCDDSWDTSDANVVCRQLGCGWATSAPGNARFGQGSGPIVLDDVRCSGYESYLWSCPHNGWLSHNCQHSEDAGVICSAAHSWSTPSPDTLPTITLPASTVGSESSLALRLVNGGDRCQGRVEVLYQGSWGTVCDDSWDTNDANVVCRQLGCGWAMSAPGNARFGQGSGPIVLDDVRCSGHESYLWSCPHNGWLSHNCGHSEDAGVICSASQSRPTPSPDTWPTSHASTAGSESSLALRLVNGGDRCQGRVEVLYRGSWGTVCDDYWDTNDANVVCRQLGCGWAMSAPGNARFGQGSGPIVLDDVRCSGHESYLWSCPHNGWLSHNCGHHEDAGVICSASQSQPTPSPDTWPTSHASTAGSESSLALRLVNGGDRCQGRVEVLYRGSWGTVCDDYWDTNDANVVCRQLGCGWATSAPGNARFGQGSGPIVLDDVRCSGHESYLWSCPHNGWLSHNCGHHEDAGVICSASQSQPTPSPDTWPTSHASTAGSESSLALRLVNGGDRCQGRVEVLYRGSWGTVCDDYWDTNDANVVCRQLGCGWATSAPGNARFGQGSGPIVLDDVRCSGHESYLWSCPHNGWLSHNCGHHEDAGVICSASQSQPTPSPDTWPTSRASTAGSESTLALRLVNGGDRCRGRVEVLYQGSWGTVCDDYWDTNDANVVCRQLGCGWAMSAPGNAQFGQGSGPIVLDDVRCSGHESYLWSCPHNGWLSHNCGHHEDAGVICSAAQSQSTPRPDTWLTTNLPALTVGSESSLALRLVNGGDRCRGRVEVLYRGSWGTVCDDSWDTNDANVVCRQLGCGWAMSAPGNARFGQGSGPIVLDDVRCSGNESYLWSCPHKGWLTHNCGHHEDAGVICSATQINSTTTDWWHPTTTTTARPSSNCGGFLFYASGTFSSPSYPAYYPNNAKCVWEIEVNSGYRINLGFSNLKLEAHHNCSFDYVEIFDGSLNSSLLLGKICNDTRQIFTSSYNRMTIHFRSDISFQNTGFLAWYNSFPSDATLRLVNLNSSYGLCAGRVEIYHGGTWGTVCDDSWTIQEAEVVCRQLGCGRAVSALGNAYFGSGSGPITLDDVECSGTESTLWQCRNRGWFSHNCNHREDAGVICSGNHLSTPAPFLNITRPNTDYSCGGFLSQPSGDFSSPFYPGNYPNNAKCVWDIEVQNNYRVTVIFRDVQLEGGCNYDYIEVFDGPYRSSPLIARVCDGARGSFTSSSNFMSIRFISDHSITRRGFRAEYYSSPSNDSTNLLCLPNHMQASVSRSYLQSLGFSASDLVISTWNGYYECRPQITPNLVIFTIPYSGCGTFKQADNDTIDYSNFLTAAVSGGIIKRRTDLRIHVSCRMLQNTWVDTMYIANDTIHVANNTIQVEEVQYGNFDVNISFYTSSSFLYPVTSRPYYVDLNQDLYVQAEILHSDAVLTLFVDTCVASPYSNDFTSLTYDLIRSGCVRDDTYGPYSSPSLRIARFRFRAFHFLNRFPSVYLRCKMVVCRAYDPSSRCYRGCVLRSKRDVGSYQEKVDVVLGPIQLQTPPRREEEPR
Put plainly: SPR binding of analytes to immobilized SAG. As to conditions: ligand SAG. As for the experimental part: as §1, §2

Experiment [4] addresses T1, iSRCR1. Put plainly: Competition adherence SPR on immobilized iSRCR1. The experiment is classed as binding. As to conditions: FL injected first. As for the experimental part: (§4) To determine whether AgI/II domains bound to the same site on SRCR domains, competitive binding SPR experiments were conducted in triplicates as previously described where each fragment of AgI/II (FL, A3VP1, or C123) or SspB (FL, A3VP1 or C123) was initially passed over the chip surface immobilized with either iSRCR1, iSRCR123 or SAG for 60 seconds to saturate available binding sites. The response curve of AgI/II or SspB first fragment was recorded, where the maximal RU (RU1) was considered as the base line for the second injection, and thereafter the competing fragment was injected and its response was recorded as RU2. The adherence of the second fragment was then calculated (RU2−RU1) for all SPR competing assay as reported earlier.

The target of experiment [5] is T3, iSRCR123. Put plainly: Competition adherence SPR on immobilized iSRCR123. As to conditions: FL injected first. Format: binding. As for the experimental part:
as §4

T1 sequence (Q9UGM3 102-202 limits assumed): as the sequence (Q9UGM3 102-202) above

B1: A3VP1^AgI/II: S. mutans AgI/II apical A3VP1 fragment (54.4 kDa) (protein)
chain: AANEADYQAKLTAYQTELARVQKANADAKAAYEAAVAANNAANAALTAENTAIKKRNADAKADYEAKLAKYQADLAKYQKDLADYPVKLKAYEDEQASIKAALAELEKHKNEDGNLTEPSAQNLVYDLEPNANLSLTTDGKFLKASAVDDAFSKSTSKAKYDQKILQLDDLDITNLEQSNDVASSMELYGNFGDKAGWSTTVSNNSQVKWGSVLLERGQSATATYTNLQNSYYNGKKISKIVYKYTVDPKSKFQGQKVWLGIFTDPTLGVFASAYTGQVEKNTSIFIKNEFTFYDEDGKPINFDNALLSVASLNRENNSIEMAKDYTGKFVKISGSSIGEKNGMIYATDTLNFRQGQGGARWTMYTRASEPGSGWDSSDAPNSWYGAGAIRMSGPNNSVTLGAISSTLVVPADPTMAIETGKKPNIWYSLNGKIRAVNVPKVTKEKPTPPVKPTAPTKPTYETEKPLKPAPVAPNYEKEPTPPTRTPDQ
One may read the Kd as a measure of binding affinity in units of concentration. A higher Kd goes with weaker binding. For the molecule B1, in the experiment with iSRCR1 [1], the KA turned out to be 8.57e+06 M⁻¹, the Kd was 117 nM, the ka stood at 28000 M⁻¹ s⁻¹ and the kd is 0.00327 s⁻¹. In the experiment with iSRCR1 (Deglycosylated), the KA turned out to be 1.92e+06 M⁻¹, the Kd worked out at 520 nM, the ka came out at 5270 M⁻¹ s⁻¹ and the kd was determined as 0.00274 s⁻¹. Moreover, in the experiment with iSRCR123 [2], the KA was found to be 7.98e+06 M⁻¹, the equilibrium dissociation constant (Kd) was determined as 125 nM, the ka is 19900 M⁻¹ s⁻¹ and the kd was found to be 0.00249 s⁻¹. Also, in experiment [3], the KA amounted to 1.22e+06 M⁻¹, the dissociation constant Kd is 818 nM, the ka was 4070 M⁻¹ s⁻¹ and the kd worked out at 0.00333 s⁻¹.

B2: C123^AgI/II: S. mutans AgI/II C-terminal C123 fragment (57.3 kDa) (protein)
chain: VNKEIRNNNDINIDRTLVAKQSVVKFQLKTADLPAGRDETTSFVLVDPLPSGYQFNPEATKAASPGFDVTYDNATNTVTFKATAATLATFNADLTKSVATIYPTVVGQVLNDGATYKNNFTLTVNDAYGIKSNVVRVTTPGKPNDPDNPNNNYIKPTKVNKNENGVVIDGKTVLAGSTNYYELTWDLDQYKNDRSSADTIQKGFYYVDDYPEEALELRQDLVKITDANGNEVTGVSVDNYTNLEAAPQEIRDVLSKAGIRPKGAFQIFRADNPREFYDTYVKTGIDLKIVSPMVVKKQMGQTGGSYENQAYQIDFGNGYASNIIINNVPKINPKKDVTLTLDPADTNNVDGQTIPLNTVFNYRLIGGIIPADHSEELFEYNFYDDYDQTGDHYTGQYKVFAKVDITFKDGSIIKSGAELTQYTTAEVDTAKGAITIKFKEAFLRSVSIDSAFQAESYIQMKRIAVGTFENTYINTVNGVTYSSNTVK
For B2, the KA with iSRCR1 [1] turned out to be 6.46e+06 M⁻¹; with iSRCR1 (Deglycosylated), 48100 M⁻¹; with iSRCR123 [2], 1.15e+07 M⁻¹; in experiment [3], 458000 M⁻¹. In addition, the equilibrium dissociation constant (Kd) with iSRCR1 [1] was determined as 151 nM; with iSRCR1 (Deglycosylated) it was 20800 nM; in the experiment with iSRCR123 [2], 87 nM; in experiment [3] it was 2180 nM. In addition, the ka with iSRCR1 [1] is 15400 M⁻¹ s⁻¹; in the experiment with iSRCR1 (Deglycosylated), 1180 M⁻¹ s⁻¹; in the experiment with iSRCR123 [2] it was 8290 M⁻¹ s⁻¹; in experiment [3], 3010 M⁻¹ s⁻¹. Moreover, the kd turned out to be 0.00232 s⁻¹ with iSRCR1 [1], 0.0246 s⁻¹ with iSRCR1 (Deglycosylated), 0.000721 s⁻¹ with iSRCR123 [2] and 0.00658 s⁻¹ in experiment [3].

B3: FL^SspB: S. gordonii SspB full length construct (151.9 kDa) (protein)
chain: DEVTETTSTSTVEVATTGNPATNLPEAQGEMSQVAKESQAKAGSKESALPVEVSSADLDKAVADAKSAGVKVVQDETKDKGTATTATDNAQKQDEIKSDYAKQAEEIKTTTEAYKKEVAAHQAETDKINAENKAADDKYQKDLKSHQEEVEKINTANATAKAEYEAKLAQYQKDLATVKKANEDSQQDYQNKLSAYQTELARVQKANAEAKEAYEKAVKENTAKNEALKVENEAIKQRNETAKATYEAAMKQYEADLAAIKKANEDNDADYQAKLAAYQTELARVQKANAEAKEAYDKAVKENTAKNTAIQAENEAIKQRNETAKATYDAAVKKYEADLAAVKQANATNEADYQAKLAAYQTELARVQKANADAKATYEKAVEDNKAKNAAIKAENEEIKQRNAVAKTDYEAKLAKYEADLAKYKKEFAAYTAALAEAESKKKQDGYLSEPRSQSLNFKSEPNAIRTIDSSVHQYGQQELDALVKSWGISPTNPDRKKSRAYSYFNAINSNNTYAKLVLEKDKPVDVTYTGLKNSSFNGKKISKVVYTYTLKETGFNDGTKMTMFASSDPTVTAWYNDYFTSTNINVKVKFYDEEGQLMNLTGGLVNFSSLNRGNGSGAIDKDAIESVRNFNGRYIPISGSSIKIHENNSAYADSSNAEKSLGARWNTSEWDTTSSPNNWYGAIVGEITQSEISFNMASSKSGNIWFAFNSNINAIGVPTKPVAPTAPTQPMYETEKPLEPAPVAPSYENEPTPPVKTPDQPEPSKPEEPTYETEKPLEPAPVAPSYENEPTPPVKTPDQPEPSKPEEPNYETEKPLEPAPVAPSYENEPTPPVKIPDQPEPSKPEEPTYDPLPTPPLAPTPKQLPTPPVVPTVHFHYSSLLAQPQINKEIKNEDGVDIDRTLVAKQSIVKFELKTEALTAGRPKTTSFVLVDPLPTGYKFDLDATKAASTGFDTTYDEASHTVTFKATDETLATYNADLTKPVETLHPTVVGRVLNDGATYTNNFTLTVNDAYGIKSNVVRVTTPGKPNDPDNPNNNYIKPTKVNKNKEGLNIDGKEVLAGSTNYYELTWDLDQYKGDKSSKEAIQNGFYYVDDYPEEALDVRPDLVKVADEKGNQVSGVSVQQYDSLEAAPKKVQDLLKKANITVKGAFQLFSADNPEEFYKQYVATGTSLVITDPMTVKSEFGKTGGKYENKAYQIDFGNGYATEVVVNNVPKITPKKDVTVSLDPTSENLDGQTVQLYQTFNYRLIGGLIPQNHSEELEDYSFVDDYDQAGDQYTGNYKTFSSLNLTMKDGSVIKAGTDLTSQTTAETDATNGIVTVRFKEDFLQKISLDSPFQAETYLQMRRIAIGTFENTYVNTVNKVAYASNTVRTTTPIPRTPDKPTPIPTPKPKDP
On to B3, for which the KA in the experiment with iSRCR1 [1] came to 3.91e+06 M⁻¹; in the experiment with iSRCR1 (Deglycosylated) it was 7.97e+06 M⁻¹; with iSRCR123 [2], 2.38e+07 M⁻¹; in experiment [3], 5.24e+06 M⁻¹; with SAG, 1.63e+08 M⁻¹. Besides, the Kd was found to be 256 nM in the experiment with iSRCR1 [1], 125 nM in the experiment with iSRCR1 (Deglycosylated), 42.1 nM with iSRCR123 [2] and 191 nM in experiment [3]. The ka in the experiment with iSRCR1 [1] stood at 9250 M⁻¹ s⁻¹; in the experiment with iSRCR1 (Deglycosylated) it was 8300 M⁻¹ s⁻¹; with iSRCR123 [2], 18200 M⁻¹ s⁻¹; in experiment [3] it was 6920 M⁻¹ s⁻¹; with SAG, 320000 M⁻¹ s⁻¹. For the same molecule, the kd stood at 0.00237 s⁻¹ with iSRCR1 [1]; 0.00104 s⁻¹ with iSRCR1 (Deglycosylated); 0.000759 s⁻¹ with iSRCR123 [2]; 0.00132 s⁻¹ in experiment [3]; 0.00197 s⁻¹ with SAG. In addition, in the experiment with iSRCR123 [2] (analyte at 2 μM, iSRCR123 versus iSRCR1), the “quantity of protein that adhered to iSRCR123, higher than iSRCR1” value worked out at 43%. The “inhibition of binding of the A3VP1 fragment of the same protein” value with iSRCR1 [4] stood at 54%; with iSRCR123 [5] it was 68%. The “inhibition of binding of the C123 fragment of the same protein” value with iSRCR1 [4] was determined as 23%; with iSRCR123 [5] it was 76%.

For the origin of these results see US20160331662A1, “Compositions that Inhibit and Prevent the Formation of Dental Caries and Methods of Using the Same” (priority 2014, published 2016).
